In patent publication US20260077041A1:

Key:
IL-17A (human) = IL-17A (human) (UniProt Q16552); assay: SPR (Biacore T200), drug captured on protein A chip, IL-17A as analyte, multi-cycle
TNFα (human) = TNFα (human) (UniProt P01375); assay: SPR (Biacore T200), drug captured on protein A chip, TNFα as analyte, multi-cycle
Chain of TNFα (human) (P01375 77-233 limits assumed): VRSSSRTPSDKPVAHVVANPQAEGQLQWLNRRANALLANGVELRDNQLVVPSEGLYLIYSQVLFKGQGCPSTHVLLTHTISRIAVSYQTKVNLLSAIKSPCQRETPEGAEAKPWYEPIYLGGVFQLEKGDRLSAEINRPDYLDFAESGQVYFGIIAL

Chain of IL-17A (human) (Q16552 24-155 limits assumed): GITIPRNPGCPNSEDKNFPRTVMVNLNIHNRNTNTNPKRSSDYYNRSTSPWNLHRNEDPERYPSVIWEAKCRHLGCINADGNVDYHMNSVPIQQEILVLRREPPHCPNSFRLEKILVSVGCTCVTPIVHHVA

Kd (IL-17A (human)) [nM]	koff (IL-17A (human)) [s⁻¹]	kon (IL-17A (human)) [M⁻¹ s⁻¹]	Kd (TNFα (human)) [nM]	koff (TNFα (human)) [s⁻¹]	kon (TNFα (human)) [M⁻¹ s⁻¹]	Substance
0.0787	6.12e-05	778000				Cosentyx (antibody)
			0.16	0.00015	941000	Humira (antibody)
